Test results: patent CN114716553A (BEIJING KENUO XINCHENG TECH CO LTD, dated 2022)
Substitutions are numbered along the chain they refer to.

B1: C3 (VHH)
VHH: QVQLQESGGGLVQAGGSLRLSCVASEYIYTRCNMAWYRQAPGKERELVSAFDIGDTLYYADSVKGRFTISQDNAKNTVYLQMNSLKPEDTAMYYCNTVGVKPGGGSWCFNPDYWGQGTQVTVSS
notes: also called 噬菌体展示的纳米抗体C3
B2: 对照抗体193 (antibody, IgG1, V domains shown)
VH: EVQLVESGGGLVQPGGSLRLSCAASGFSLSSSYWISWVRQAPGKGLEWIGSIDSGSVGITYYATWVKGRFTISRDNSKNTLYLQMNSLRAEDTAVYYCARHGDNWALDLWGQGTLVTVSS
VL: DIQMTQSPSTLSASVGDRVTITCRASQSINSWLAWYQQKPGKAPKLLIYKASTLASGVPSRFSGSGSGTEFTLTISSLQPDDAATYYCQHGYIRGDLDNVFGGGTKVEIK
notes: Variable regions cloned into vectors with human kappa / IgG1 constant regions and expressed in HEK293; also called 同靶点对照抗体193
B3: B2 (VHH)
VHH: QVQLQESGGGPVQAGGSLRLSCAASEYSYRRHCMAWFRQAPGKEREGVATIYTGGGITRYADSVKGRFTISQDNAKNTVYLQMNSLKPEDTAMYYCAADIASRACVTDPFPLERARFSAWGQGTQVTVSS
notes: also called 噬菌体展示的纳米抗体B2
B4: F1 (VHH)
VHH: B3 VHH with P11L
notes: also called 噬菌体展示的纳米抗体F1
B5: hzD2-1 (Fc fusion)
chain: EVQLVESGGGLVQPGGSLRLSCAASGFTVSSDYMGWFRQAPGKEREGVACINTNGGETYHANSVSGRFTISRDNSKNTLYLQMNSLRAEDTAVYYCARGRTNPDSYGGSRCLLAPEYTYWGQGTLVTVSS
notes: Humanised VHH of D2 fused to human Fc, expressed in HEK293; also called D2人源化分子hzD2-1; hzD2-1人源化抗体; not shown: human Fc (hFc) from the expression vector
B6: hzD2-2 (Fc fusion)
chain: B5 chain with F27Y, V29A
notes: Humanised VHH of D2 fused to human Fc, expressed in HEK293; also called D2人源化分子hzD2-2; hzD2-2人源化抗体; not shown: human Fc (hFc) from the expression vector

What was measured:
[1] = molecular target: T1, 人LILRB4的重组蛋白 (phage library screening antigen) (human, UniProt Q8NHJ6 22-259, limits assumed); assay: solid phase screening of phage library
T1 construct: May be the same protein as the immunogen or as m14

[2] = molecular target: T2, 人LILRB4重组蛋白(购于义翘，Cat.16742-H08H) (human, UniProt Q8NHJ6 22-259); assay: BLI (Octet QKe), antibody captured on AHC probe, antigen 100 nM, 1:1 Langmuir fit
T2 construct: Bought protein; also called human LILRB4 recombinant protein

[3] = molecular target: T3, 人LILRB4 (on LILRB4-positive cells) (human, UniProt Q8NHJ6 22-448); assay: flow cytometry on RPMI-8226 cells
T3 construct: whole, on cells; also called 人LILRB4阳性细胞THP-1细胞; 人LILRB4阳性细胞RPMI-8226细胞

[4] = molecular target: T3, 人LILRB4 (on LILRB4-positive cells); assay: flow cytometry on THP-1 cells
[5] = molecular target: T3, 人LILRB4 (on LILRB4-positive cells); assay: cell-based or functional assay

Binder	binding result [1]	Kd [2] [nM]	koff [2] [s⁻¹]	kon [2] [M⁻¹ s⁻¹]	EC50 [3] [nM]	EC50 [4] [nM]	EC50 of T cell activation (LILRB4 Effector Reporter cells with APOE/TCR Activator/CHO cells, luciferase) [5] [nM]
B1	binds						
B2		0.721	0.00022	305000	0.227	1.43	0.094
B3	binds						
B4	binds						
B5		1.03	0.000172	167000	0.221		
B6		0.948	0.000175	185000	0.215		
